In the nanobody polyreactivity screen of Harvey et al. (2022):

Test: yeast display, Sf9 membrane polyspecificity reagent, FACS + sequencing; frameworks hold sequencing errors
Summary of the method: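 Synthetic nanobody libraries on Saccharomyces cerevisiae BJ5465 were galactose-induced for 36–48 hours, stained 1 hour at 4 °C with 10% biotinylated, detergent-solubilized Sf9 membrane reagent and enriched on streptavidin microbeads. FACS then separated cells into low and high (top ~1%) gates by anti-HA (expression) and streptavidin (reagent binding) fluorescence. Genes were colony-PCR amplified, MiSeq 2 × 250 sequenced and CDR-length filtered. A clone's polyreactivity label is that of its gate of origin.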

Sequence | polyreactivity (PSR sort gate)
QVQLVESGGGLVQAGGSLRLSSAASGITFAYYAMGWYRLAPGTVRELVAAISSTGSSTYYADSVKGRFTISRDNAKNTVYLQMNSLKPEDTAVYYCAARVHYRGIVRYDYWGQGTQVTVSS | high polyreactivity
QVQLVESGGGLVQAGGSLRLSSAASGITFKAYAMGWYRHAPGKERELVAAISGSGGATYYADSVEGRFTISRDNEKNTVYLQMISLKPEVTAVYYCAARAVSLTGYRFGYWGQGTQVTVSS | high polyreactivity
QVQLVESGGGLVQAGGSLRLSSAASGITFRFYSMGWYRQAPGKEREFVAAISTRGGRTYYADSVKGRFTISRDNAKNTVYLQMKSLKPEDTAVYYFAADFYYRTVATVTSVARYDYWGQGTQVTVSS | high polyreactivity
QVQLVESGGGLVQAGGSLRLSSAASGITFRYYTMGWYRQAPGKERELVAAITWSGGSTYYADSVKGRFTISRDNAKNTVYLQMNSLKPEDTAVYYGAADSYRFRYSGYDYWGQGTQVTVSS | high polyreactivity
QVQLVESGGGLVQAGGSLRLSSAASGLIFSVNAMGWYRQAPGKESEMIAAISKSGGRTYYADSVKGRFTISRDNAKNTVYLQMNSLKPEDTAVYYCAKRSRWNYKGYGTCGYYWGQGTQVTVSS | high polyreactivity
QVQLVESGGGLVQAGGSLRLSSAASGLIFYDNMGWSRQAPGKERELDAAISSSGGSTSDADSVKGRFTISRDNAKNTVYLQMNSLKPEDTAVYYCAADSYPDYLGFVGFDYWGQGTQVTVSS | low polyreactivity
QVQLVESGGGLVQAGGSLRLSSAASGLIFYWYAMGWYRQAPGKERELVAAISSAGSTNYADSVKGRFTISRDNAKNTVYLQMNSLKPEDTAVYYCAKGGYSPKSVKYYDYWGQGTQVTVSS | low polyreactivity
QVQLVESGGGLVQAGGSLRLSSAASGLTFALYAMGWYRQAPGKERELVATISRGASTNYADSVKGRFTISRDNTKNTVYLQMNSLKPEDTAVYYWAVALRSTPRTREVRPSPRVYYWGQGTQVTVSS | high polyreactivity
QVQLVESGGGLVQAGGSLRLSSAASGNIFKSYTMGWYRQAPGKERELVAAITSGGRTNYGDSVKGRFTISRDNAKNTVYLQMNSLKPEDTAVYYCNAYKVFWVSIRYKFDYWGQGTQVTVSS | high polyreactivity
QVQLVESGGGLVQAGGSLRLSSAASGRIFAYNAMGWYRQAPGKEREFVAAITLGTGRTYYADSVKGRFTISRDNAKNTDYLQMNSLKAEDTAVYYCAARRVRGDVDYWYIYDYWGQGTQVTVSS | high polyreactivity
QVQLVESGGGLVQAGGSLRLSSAASGRIFDANDMGWYRQAPGQERELVAVISSRGGSTYYADSVKGRFTISRDNAKNTVDLQMNSLKPEEAAVYYCAKGLSVAGYDYWGQGTQVTVSS | low polyreactivity
QVQLVESGGGLVQAGGSLRLSSAASGRIFIRNAMGWYRQAPGKERELVAAISWSGGRTYYADSVKGRFTISRDNAKNTVYLQMNSLKPEDTAVYYCAALRYAFQYGLSYYWGQGTQVTVSS | high polyreactivity
QVQLVESGGGLVQAGGSLRLSSAASGRIFKKNSMGWYRQAPGKERELVAAINWTGGSTYYADSVKGRFTISRDNAMNTVYLQLNSLKPEDTAFYYCAVGVYPSYRGPTFSTRRDYWGQGTQVTVSS | low polyreactivity
QVQLVESGGGLVQAGGSLRLSSAASGRIFKYYVMGWYRQAPGKEREFVAAISGRGGRTYYADSVKGRFTISRDNAKNTVYLQMNSLKPEDTAVYYCATERQDRGPLGYNYWGQGTQVTVSS | high polyreactivity
QVQLVESGGGLVQAGGSLRLSSAASGRIFRKYAMGWYRQAPGKERELVAAISGSGVSTYYADSVKGRFTISRDNAKNTVYLQMNSLKPEDTAVYYCNARIILRGYKSYRYDYWGQGTQVTVSS | high polyreactivity
QVQLVESGGGLVQAGGSLRLSSAASGRIFSINAMGWYSQAPGKERELVATISWRGGSTYYADSVKGRFTISRDNAKNTVYLQMNSLKPEDTAVYYCAAKYPYYSSYAYGYWGQGTQVTVSS | high polyreactivity
QVQLVESGGGLVQAGGSLRLSSAASGRIFTYYTMGWSRQAPGKERELVAAISARGGNTYYADSVKGRFTISRDNAKNTVYLQMNSLKPEDTAVYYCAAGWVTSRTYYTHQIRNPLDYWGQGTQVTVSS | high polyreactivity
QVQLVESGGGLVQAGGSLRLSSAASGRIFYGYTMGWYRQAPGKERELVAAITQSSGSTYYADSVKGRFTISRDNAKNTVYLQMNSLKPEDTAVYYCARDPGRRYSYTYDYWGQGTQVTVSS | low polyreactivity
QVQLVESGGGLVQAGGSLRLSSAASGRIFYLNAMGWYRQAPGIERELVAAINTSGDSTYYADSVKGRFTISRDNAKNTVYLQMNSLKPEDTEVYYCAAYVIGPDHFIYDYWGQGTQVTVSS | low polyreactivity
QVQLVESGGGLVQAGGSLRLSSAASGRILKYYAMGWYRQAPGKERELVAAIGSGGSTYYADSVKGRFTISRDNAKNTVYLQMNSLKPDDTAVYYCNAEDQWGGYGYDYWGQGTQLTVSS | low polyreactivity
QVQLVESGGGLVQAGGSLRLSSAASGRILPVNTMGWYRQAPGKERELVAVITRSGGRTYYADSVKGRFTISRDYAKNTVYLQMNSLKPEDTAVYYCAADVGFRWYRYTAGPLEYDYWGQGTQVTVSS | high polyreactivity
QVQLVESGGGLVQAGGSLRLSSAASGRILQFNAMGWYRQAPGKDRELVAAITSGGSTNYADSVKGRFTISRDNAKNTVYLQMNSLKPEVTAVYYCAAQSLLWQRRLRGYYYWGQGTQVTVSS | high polyreactivity
QVQLVESGGGLVQAGGSLRLSSAASGRISQNAIGWYRQAPGKERELVAAITFSGGSTYYADSVKGRFTISRDNAKNTVFLQMNSLKPEDTAVYYCAAEDRPLYWRFPDEMDYWGQGTQVTVSS | low polyreactivity
QVQLVESGGGLVQAGGSLRLSSAASGRLFGLNALGWYRQAPGKERELVASSTYSGGSTYYADSVKGRFTISRDNAKNTVYLQMNSLKQEDTAVYYCAGDSWYYWYSTYDYWGQGTQETVSS | high polyreactivity
QVQLVESGGGLVQAGGSLRLSSAASGRTFAYYAMGWYRQAPGKERELVAAISSAGRTYYADSVKGRFTISRDNAKNTVYLQMNSLKTEDTAVYYCAAEWYYYVIWLYEYWGQGTQVTVSS | high polyreactivity
QVQLVESGGGLVQAGGSLRLSSAASGRTFGRYAMGWYRQAPGKERELVAAITRSGSSTYYADSVKGRFTISRDNAKNTVYLQMNSLKPEDTAVYYCAALYGPFYSTGEYWGQGTQVTVSS | high polyreactivity
QVQLVESGGGLVQAGGSLRLSSAASGRTFGYNAMGWYRPATGKERELVAAISWSGARTYYADSVKGRFTISRDIAKNTVYLQLNSLTPEDTAVYYCAAGIDGYYWPFFRNYDYWGQGTQVTVSS | high polyreactivity
QVQLVESGGGLVQAGGSLRLSSAASGRTFLRYAMGWYRQAPGKVRELVAAISWSGGRTYYADSVKGRFRISRDLAKNTVYLQMNSLKTEVTAVYYCNKGVLYGAHFYYWGQGTQVTGSS | high polyreactivity
QVQLVESGGGLVQAGGSLRLSSAASGRTFPHYAMGWYRQAPGKERELVAAISSSGGSTYYADSVKGRFTISRDNAKNTVYLQMNSLKPEETAVYSCAARYVDDGWKYAYWGQGTQVTVSS | low polyreactivity
QVQLVESGGGLVQAGGSLRLSSAASGRTFRPNAMGGYRQAPGKERELVAGITRGGSTKYADSVKGRFTISRDNSKNTVYLQMNSLKPEDTAVYYCAVERGSYSYDRPFYYCGQGTQVTVSS | high polyreactivity
